Test results reported in article PMC1257591, “In Vitro Inhibition of Human Hepatic and cDNA-Expressed Sulfotransferase Activity with 3-Hydroxybenzo[a]pyrene by Polychlorobiphenylols” (Environmental Health Perspectives, 2005).

How the values were obtained:
Type in all cases: biochemical, human
[1] = substrate: Oc1ccc2ccc3c4ccccc4cc4ccc1c2c43; assay: Kinetics of 3-OH-BaP sulfonation by expressed SULT1A1*2; details: other: expressed SULT1A1*2; two-substrate model
Excerpt: (§1) The expression of human SULT1A1*1, SULT1A3, SULT1B1, and SULT1E1 in Escherichia coli has been described previously ([Dajani et al. 1998]; [Wang et al. 1998]). We grew E. coli cells containing the respective sulfotransferase genes as described previously ([Falany et al. 1990], [1994]), and prepared 100,000g supernatant fractions for use in inhibition studies and for partial purification of the SULT enzymes. We purchased expressed SULT1A1*2 cytosolic extract from PanVera (Madison, WI) and used it as supplied.
(§2) We determined SULT activity with 3-OH-BaP as substrate by a fluorimetric assay of BaP-3-SO4 product formation, as described previously ([Wang et al. 2004]). […] Duplicate tubes were prepared for each incubation condition. We examined the kinetics of sulfonation in three liver cytosol fractions by systematically varying the concentration of 3-OH-BaP or PAPS. […]
(§3) We determined the kinetic parameters for 3-OH-BaP sulfonation by partially purified preparations of the cDNA-expressed SULT isozymes under incubation conditions similar to those used for liver cytosol. […]
(§4) We calculated the enzyme kinetic parameters from studies with variable concentrations of 3-OH-BaP using nonlinear regression analysis and GraphPad 4.0 software (GraphPad Software, San Diego, CA). […]

[2] = substrate: Oc1ccc2ccc3c4ccccc4cc4ccc1c2c43; assay: Kinetics of 3-OH-BaP sulfonation by partially purified cDNA-expressed SULT1A1*1; details: other: apparent; partially purified SULT1A1*1; 3-OH-BaP as substrate
Excerpt: as §1
(§5) The 100,000g supernatant fractions of SULT1A1*1, SULT1A3, SULT1B1, and SULT1E1 were partially purified by chromatographic methods ([Falany et al. 1990], [1994]). After the last step, a 3′-phosphoadenosine 5′-phosphate (PAP)-agarose affinity column, we dialyzed the fractions eluted with PAP with three changes of buffer to remove PAP before the assay of SULT activity with 3-OH-BaP as substrate. We analyzed active fractions by SDS-PAGE ([Laemmli 1970]) to assess the purity of each SULT enzyme. We stained the gels with Coomassie R-250 reagent and determined the percentage of protein present as each respective SULT enzyme by scanning densitometry.
as §2, with “PAPS. When the variable substrate was 3-OH-BaP, we used 12 concentrations in the range from 0.035 to 2.00 μM, and the concentration of PAPS was kept constant at 10 μM.” for “PAPS.”
as §3, §4

[3] = substrate: Oc1ccc2ccc3c4ccccc4cc4ccc1c2c43; assay: Kinetics of 3-OH-BaP sulfonation by partially purified cDNA-expressed SULT1A3; details: other: apparent, 3-OH-BaP as substrate
Excerpt: as §1, §5
as §2, with “PAPS. When the variable substrate was 3-OH-BaP, we used 12 concentrations in the range from 0.035 to 2.00 μM, and the concentration of PAPS was kept constant at 10 μM.” for “PAPS.”
as §3, §4

[4] = substrate: Oc1ccc2ccc3c4ccccc4cc4ccc1c2c43; assay: Kinetics of 3-OH-BaP sulfonation by partially purified cDNA-expressed SULT1E1; details: other: apparent, 3-OH-BaP as substrate
Excerpt: as §1, §5
as §2, with “PAPS. When the variable substrate was 3-OH-BaP, we used 12 concentrations in the range from 0.035 to 2.00 μM, and the concentration of PAPS was kept constant at 10 μM.” for “PAPS.”
as §3, §4

B1: SULT1A1*2 (Homo sapiens; R213H) (protein)
chain: MELIQDTSRPPLEYVKGVPLIKYFAEALGPLQSFQARPDDLLISTYPKSGTTWVSQILDMIYQGGDLEKCHRAPIFMRVPFLEFKAPGIPSGMETLKDTPAPRLLKTHLPLALLPQTLLDQKVKVVYVARNAKDVAVSYYHFYHMAKVHPEPGTWDSFLEKFMVGEVSYGSWYQHVQEWWELSRTHPVLYLFYEDMKENPKREIQKILEFVGHSLPEETVDFVVQHTSFKEMKKNPMTNYTTVPQEFMDHSISPFMRKGMAGDWKTTFTVAQNERFDADYAEKMAGCSLSFRSEL
notes: purchased PanVera (Madison, WI); host or cells: Sf-9
- Km [1]: 0.022 µM

B2: SULT1A1*1 (Homo sapiens) (protein)
chain: MELIQDTSRPPLEYVKGVPLIKYFAEALGPLQSFQARPDDLLISTYPKSGTTWVSQILDMIYQGGDLEKCHRAPIFMRVPFLEFKAPGIPSGMETLKDTPAPRLLKTHLPLALLPQTLLDQKVKVVYVARNAKDVAVSYYHFYHMAKVHPEPGTWDSFLEKFMVGEVSYGSWYQHVQEWWELSRTHPVLYLFYEDMKENPKREIQKILEFVGRSLPEETVDFVVQHTSFKEMKKNPMTNYTTVPQEFMDHSISPFMRKGMAGDWKTTFTVAQNERFDADYAEKMAGCSLSFRSEL
notes: made in house; host or cells: Escherichia coli
- Km [2]: 0.018 µM
- Vmax [2]: 0.00689 µmol/min/mg
- Vmax/Km [2]: 383000 µL/min/mg

B3: SULT1A3 (Homo sapiens) (protein)
chain: MELIQDTSRPPLEYVKGVPLIKYFAEALGPLQSFQARPDDLLINTYPKSGTTWVSQILDMIYQGGDLEKCNRAPIYVRVPFLEVNDPGEPSGLETLKDTPPPRLIKSHLPLALLPQTLLDQKVKVVYVARNPKDVAVSYYHFHRMEKAHPEPGTWDSFLEKFMAGEVSYGSWYQHVQEWWELSRTHPVLYLFYEDMKENPKREIQKILEFVGRSLPEETMDFMVQHTSFKEMKKNPMTNYTTVPQELMDHSISPFMRKGMAGDWKTTFTVAQNERFDADYAEKMAGCSLSFRSEL
notes: as for B2
- Km [3]: 2.90 µM
- Vmax [3]: 0.333 µmol/min/mg
- Vmax/Km [3]: 115000 µL/min/mg

B4: SULT1E1 (Homo sapiens) (protein)
chain: MNSELDYYEKFEEVHGILMYKDFVKYWDNVEAFQARPDDLVIATYPKSGTTWVSEIVYMIYKEGDVEKCKEDVIFNRIPFLECRKENLMNGVKQLDEMNSPRIVKTHLPPELLPASFWEKDCKIIYLCRNAKDVAVSFYYFFLMVAGHPNPGSFPEFVEKFMQGQVPYGSWYKHVKSWWEKGKSPRVLFLFYEDLKEDIRKEVIKLIHFLERKPSEELVDRIIHHTSFQEMKNNPSTNYTTLPDEIMNQKLSPFMRKGITGDWKNHFTVALNEKFDKHYEQQMKESTLKFRTEI
notes: as for B2
- Km [4]: 0.05 µM
- Vmax [4]: 0.00835 µmol/min/mg
- Vmax/Km [4]: 167000 µL/min/mg
